Assay results taken from paper PMC2757638.

Target: recombinant Cse4 (S. cerevisiae) (UniProt P36012)
Assay: SEC

recombinant Cse4 (from UniProt P36012 1-229) (natural protein; other documents disagree on this pair)
stoichiometry N: 2
